In paper PMC2441640:

Legend:
[1] = biological target: ORF3 protein fused to enhanced cyan fluorescent protein (ECFP-ORF3) (hepatitis E virus); experiment: FRET or BRET
[2] = biological target: Pyst1 fused to enhanced yellow fluorescent protein (EYFP-Pyst1) (UniProt Q16828); experiment: FRET or BRET
UniProt Q16828, sequence (Q16828 whole entry, the tested form may be a part): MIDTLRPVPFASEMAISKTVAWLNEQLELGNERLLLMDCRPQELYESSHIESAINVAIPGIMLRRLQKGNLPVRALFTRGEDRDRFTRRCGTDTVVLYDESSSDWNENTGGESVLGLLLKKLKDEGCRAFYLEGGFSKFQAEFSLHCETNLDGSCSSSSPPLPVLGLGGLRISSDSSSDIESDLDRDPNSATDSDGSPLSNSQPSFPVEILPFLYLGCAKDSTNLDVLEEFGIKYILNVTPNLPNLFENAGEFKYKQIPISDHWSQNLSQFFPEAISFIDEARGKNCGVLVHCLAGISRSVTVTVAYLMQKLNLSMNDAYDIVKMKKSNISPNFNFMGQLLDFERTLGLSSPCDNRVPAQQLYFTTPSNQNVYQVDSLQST

ORF3 protein fused to enhanced cyan fluorescent protein (ECFP-ORF3) (natural protein)
percent FRET efficiency (region of colocalization) [1]: 26.4%
percent FRET efficiency (region of colocalization) [2]: 27.8%
